Measurements taken from paper PMC3500269.

B1: PMO-02916 (enzyme)
chain: HTIFQKVSVNGADQGQLKGIRAPANNNPVTDVMSSDIICNAVTMKDSNVLTVPAGAKVGHFWGHEIGGAAGPNDADNPIAASHKGPIMVYLAKVDNAATTGTSGLKWFKVAEAGLSNGKWAVDDLIANNGWSYFDMPTCIAPGQYLMRAELIALHNAGSQAGAQFYIGCAQINVTGGGSASPSNTVSFPGAYSASDPGILINIYGGSGKTDNGGKPYQIPGPALFTCPAGGSGGSSPAPATTASTPKPTSASAPKPVSTTASTPKPTNGSGSGTGAAHSTKCGGSKPAATTKASNPQPTNGGNSAVRAAALYGQCGGKGWTGPTSCASGTCKFSNDWYSQCLP
B2: PMO-03328 (enzyme)
chain: HYTFPKVWANSGTTADWQYVRRADNWQNNGFVDNVNSQQIRCFQSTHSPAQSTLSVAAGTTITYGAAPSVYHPGPMQFYLARVPDGQDINSWTGEGAVWFKIYHEQPTFGSQLTWSSNGKSSFPVKIPSCIKSGSYLLRAEHIGLHVAQSSGAAQFYISCAQLSITGGGSTEPGANYKVSFPGAYKASDPGILININYPVPTSYKNPGPSVFTC
B3: PMO-01867 (enzyme)
chain: HAIFQQLWVDGVDYGSTCNRLPTSNSPVTNVGSRDVVCNAGTRGVSGKCPVKAGGTVTVEMHQQPGDRSCKSEAIGGAHWGPVQIYLSKVSDASTADGSSGGWFKIFSDAWSKKSGGRVGDDDNWGTRDLNACCGRMDVLIPKDLPSGDYLLRAEALALHTAGQSGGAQFYISCYQITVSGGGSANYATVKFPGAYRASDPGIQINIHAVVSNYVAPGPAVVAGGVTKQAGSGCIGCESTCKVGSSPSAVAPGGKPASGGSDGNAPEVAEPSGGEGSPSAPGACEVAAYGQCGGDQYSGCTQCASGYTCKAVSPPYYSQCAPTS
B4: PMO-08760 (enzyme)
chain: HATFQALWVDGADYGSQCARVPPSNSPVTDVTSNAMRCNTGTSPVAKKCPVKAGSTVTVEMHQQANDRSCSSEAIGGAHYGPVLVYMSKVSDAASADGSSGWFKIFEDTWAKKPSSSSGDDDFWGVKDLNSCCGKMQVKIPSDIPAGDYLLRAEVIALHTAASAGGAQLYMTCYQISVTGGGSATPATVSFPGAYKSSDPGILVDIHSAMSTYVAPGPAVYSGGSSKKAGSGCVGCESTCKVGSGPTGTASAVPVASTSAAAGGGGGGGSGGCSVAKYQQCGGTGYTGCTSCASGSTCSAVSPPYYSQCV

The binders below were run against cellobiose dehydrogenase IIA from N. crassa (N. crassa).
B1 gave a Specific activity of H2O2 production (Amplex Red/horseradish peroxidase assay) with CDH IIA (0.3 uM, 500 uM cellobiose) as reductant of 1.82 U g^-1. In the case of B2, the Specific activity of H2O2 production (Amplex Red/horseradish peroxidase assay) with CDH IIA (0.3 uM, 500 uM cellobiose) as reductant is reported as 15.5 U g^-1. In the case of B3, the Specific activity of H2O2 production (Amplex Red/horseradish peroxidase assay) with CDH IIA (0.3 uM, 500 uM cellobiose) as reductant is reported as 1.07 U g^-1. In the case of B4, the Specific activity of H2O2 production (Amplex Red/horseradish peroxidase assay) with CDH IIA (0.3 uM, 500 uM cellobiose) as reductant is reported as 1.53 U g^-1.
